Measured values published in US7919292B2, “Producing hydrogen by heterologous expression of a type II NAD (P)H dehydrogenase in Chlamydomonas” (Commissariat a l'Energie Atomique, priority 2004, dated 2011).
Like-named read-outs stand apart in the source and are kept apart here.

B1: Agrobacterium NDH-II: type II NAD(P)H dehydrogenase from Agrobacterium tumefaciens, SEQ ID NO: 2, purified with 6His tag (protein, listed as Agrobacterium tumefaciens)
chain: MQEHHVVVVGGGFGGLQLVHGLEGAPVRITLIDRRNHHLFQPLLYQVATTALATSEIAWPIRHLYRDRKEVTTLLAEVTGVDRAARTVQLNSGQVIGFDTLVLATGARHAYFGHDEWERSAPGLKTLEDATTIRRRLLLAFERAELATSEEERQALLTFVIIGAGPTGVEMAGMIAELAHRALPAEFRNVDTRKTRVLLVEAGPRVLPVFTEDLSTYAKEALEKLGVEVLLGTPVTACTDEGVTVGETYYPCRTVVWAAGVQASPAAKWLNAAGDRAGRVIVGPQLHLEDDADIFVIGDTAAVNQENGKPVPGIAPAAKQQGAYVAKVIKARLEGKPIPAPFRYSHQGNLATIGKRAAVIDFGRFKLKGVLAWWIWGLAHIYFLIGTRSRLAVAWSWLWIYLSGQHSARLITQKETLKDEA
modifications: 6His tag

Columns and labels:
[1] = target: Agrobacterium tumefaciens NDH-II (Agrobacterium fabrum (Agrobacterium tumefaciens), UniProt Q7CY19); assay: biochemical
Protocol: The activity of the Agrobacterium tumefaciens NDH-II was assayed using membranes from an E. coli strain deficient in NDH-I and NDH-II (ndh::tet; nuoB::nptl).
The cells were then collected by centrifugation (15 min, 3200×g) and washed twice with 10 ml of solution containing 200 mM Tris-Cl, pH 8, 2.5 mM EDTA and 0.2 mM PMSF. They were then ruptured by passing them twice through a French press at the pressure of 16 000 psi.
The membrane fraction was recovered by centrifugation (30 min, 48 500×g) and resuspended in 200 μl of analysis buffer (50 mM of phosphate buffer, pH 7.5, and 150 mM NaCl).
The O2 consumption of the E. coli ANN0222 membranes was measured by means of a Clark electrode (DW2/2, Hansatech, King's Lynn, England). After addition of the purified enzyme, this method made it possible to determine its specific activity. […]
In order to measure only the membrane-linked respiratory oxidase activity, catalase (1000 U/ml) and superoxide dismutase (SOD) (500 U/ml) were added to the reaction mixture. […] The inhibition kinetics were determined in the presence of 200 μM of NADH or of 2 mM of NADPH.

[2] = tested on: E. coli ANN0222 membranes; assay: Enzymatic activity of purified NDH-II on bacterial membranes (O2 consumption, Clark electrode); format: biochemical; conditions: 25° C.; for Km: physiological pH
Protocol: In the next experiment, the capacity of this enzyme to transport electrons to the respiratory chain of E. coli was determined.

[3] = Activity of wild-type and E201Q modified protein with NADH and NADPH; format: biochemical; conditions: FIG. 12
Protocol: The affinity of the modified protein for NADH and NADPH was determined.
The results are illustrated in FIG. 12.

[4] = tested on: Chlamydomonas reinhardtii plastoquinones; assay: Plastoquinone reduction measured by chlorophyll fluorescence on thylakoid membranes; format: biochemical; conditions: NDH-II 1.5 μg·ml^−1, 200 μM NADH, anaerobic
Protocol: The plastoquinone-reducing activity by the Agrobacterium NDH-II was analyzed by measuring chlorophyll fluorescence. In the presence of a weak nonactinic illumination, the measurement of chlorophyll fluorescence provides an indication of the plastoquinone redox state.
(§1) A culture of 200 ml of Chlamydomonas reinhardtii (wild-type 137c) was sampled in the exponential growth phase (approximately 5×10^6 cells·ml^−1), and then centrifuged (5 min, 1000×g). The cells were washed in 35 mM HEPES-NaOH buffer (pH 7.2), resuspended in 10 ml of lysis buffer (50 mM tricine-NaOH, pH 8, 10 mM NaCl, 5 mM MgCl2, 1% BSA, 1 mM benzamidine and 1 mM PMSF) and stored in the cold and in the dark for the following steps.
The suspension was passed through a French press twice, at 2000 psi. […]
The photosystem II fluorescence was measured using a modulated light fluorimeter (PAM 101-103, Walz, Effeltrich, Germany).
A nonactinic modulated light (650 nm, 1.6 kHz) was used to determine the level of chlorophyll fluorescence F0. The maximum level of the chlorophyll fluorescence Fm was measured under a saturating flash of 1 second (approximately 1000 μmol photons·m^−2·s^−1). […]

[5] = tested on: E. coli ANN0222 membranes; assay: Membrane NADH dehydrogenase activity of E. coli ANN0222 expressing Agtundh2 (O2 uptake); format: biochemical
Protocol: Two batches of E. coli ANN.0222 membrane fractions were prepared, from a culture of the control strain on LB medium and from a culture of the strain having incorporated the plasmid pSDN2Ag6H, cultured on LB medium in the presence of 0.1 mM IPTG. The cultures were carried out until an optical density of 1 at 600 nm was obtained. […] The cells were then ruptured by passing them through a French press twice, at 16 000 psi. The membrane fraction, collected by centrifugation (30 min, 4° C., 48,500×g), was taken up in 200 μl of buffer B (50 mM phosphate buffer, pH 7.5 and 150 mM NaCl).
The results are illustrated by FIG. 10B, which represents the O2 uptake, in the presence of NADH, of E. coli ANN0222 membranes prepared from the reference strain (control) and from the strain expressing Agtundh2.
To determine the catalytic efficiency of Agtundh2 expressed in E. coli, the specific activity was estimated from the amounts determined by Western blotting.
On the basis of the relative intensities of the signals obtained for the purified Agtundh2 protein and for the membrane fractions, the amount of Agtundh2 protein in the experiments illustrated by FIG. 10B was estimated at 0.6 μg protein. The maximum O2 uptakes under these conditions are thus estimated at 13.2/0.6=22 nmol O2 min^−1·μg^−1 protein, i.e. 44 nmol NADH min^−1·μg^−1 protein.

Chlamydomonas thylakoids = assay: Photo-induced DNP-INT-sensitive oxygen uptake of Chlamydomonas thylakoids (electron transport from NAD(P)H to the photosynthetic chain); format: biochemical, Chlamydomonas reinhardtii
Protocol: as §1
The suspension was passed through a French press twice, at 2000 psi. The lysate was first centrifuged (5 min, 4° C., 500×g) in order to remove the unlysed cells, and the thylakoid membranes were then pelleted at 10 000×g for 10 min and resuspended in 250 to 500 μl of analysis buffer (50 mM tricine-NaOH, pH 7.2, 10 mM NaCl and 5 mM MgCl2).
In order to quantify this effect of the Agrobacterium NDH-II on the electron flow from NAD(P)H to the acceptors of PSI, oxygen consumption measurements were carried out in the presence of methyl viologen (an acceptor of PSI), of DCMU (an inhibitor of PSII) and of an NADH (200 μM) or NADPH (2 mM) electron donor.
The Chlamydomonas thylakoids (50 μl, corresponding to 85 μg·ml^−1 of chlorophyll) are placed in a Clark electrode containing 900 μl of analysis buffer (50 mM tricine-NaOH, pH 7.2, 10 mM NaCl and 5 mM MgCl2, 25 μM DCMU, 50 μM methyl viologen, SOD (500 U·ml^−1), catalase (1000 U·ml^−1), 4 μM of myxothiazol and 800 μM of SHAM (salicylhydroxamic acid). The latter two compounds are added in order to inhibit respiratory O2 uptake.
Under these conditions, the fraction of the photo-induced oxygen uptake sensitive to DNP-INT (2-iodo-6-isopropyl-3-methyl-2′,4,4′-trinitrodiphenyl ether; 10 μM), an inhibitor of cytochrome b6f, is proportional to the electron transport between the NAD(P)H and the photosynthetic chain.

E. coli strain ANN.0222 = assay: Complementation-growth test of NDH-deficient E. coli; format: cell-based; conditions: M9 + mannitol
Protocol: The functionality of the Agtundh2 protein in vivo in a heterologous host was tested by determining its capacity to restore the growth of a mutant E. coli strain, ANN.0222, deficient in NDH-1 and in NDH-2. This strain grows normally on LB medium, but is incapable of growing on minimum medium M9 supplemented with mannitol as the sole carbon source.
The E. coli strain ANN.0222 was chemically transformed (CaCl2) with the plasmid pSDN2Ag6H. The transformants were selected on LB agar medium (supplemented with 1% tryptone, 0.5% of yeast extract and 0.5% NaCl, pH 7) containing ampicillin (100 μg/ml). The transformants and the strain of origin were cultured until the middle of the exponential phase at 37° C. in liquid LB medium containing ampicillin (100 μg/ml). The cells were rinsed with sterile M9 medium, supplemented with mannitol as the sole carbon source (1× M9 salts, 2×10^−3 M MgSO4, 10^−4 M CaCl2, 0.4% mannitol). The cells were then diluted in M9 medium/mannitol and inoculated on a solid M9/mannitol/agar medium containing ampicillin and various concentrations of IPTG. The Petri dishes were incubated at 37° C. for 2 days. As a control, the same cells were inoculated in parallel on dishes containing LB agar medium containing ampicillin and various concentrations of IPTG, and then incubated at 37° C. overnight. […]

Molecule | IC50 [1] | Km ([2]; read-out: Km for NADH) | Km ([2]; read-out: Km for NADPH) | maximum activity (Vmax) ([2]; purified enzyme plus E. coli ANN0222 membranes, pH 7.5) | activity with 200 μM NADH compared with 200 μM NADPH [3] | increase in chlorophyll fluorescence (plastoquinone reduction) versus natural enzyme alone [4] | specific activity as NADH ([5]; Agtundh2 expressed in E. coli membranes) | maximum O2 uptake (specific activity) ([5]; Agtundh2 expressed in E. coli membranes, protein amount estimated by Western blotting at 0.6 μg) | O2 uptake of membranes on addition of NADH ([5]; strain transformed with pSDN2Ag6H, 0.1 mM IPTG, control strain none detected) | electron transport, NADH as donor (Chlamydomonas thylakoids; 1.5 μg purified NDH-II added, NADH 200 μM, without enzyme 21) | electron transport, NADPH as donor (Chlamydomonas thylakoids; 1.5 μg purified NDH-II added, NADPH 2 mM, without enzyme 20) | stimulation factor of electron transport, NADH (Chlamydomonas thylakoids; NADH to thylakoid plastoquinones) | stimulation factor of electron transport, NADPH (Chlamydomonas thylakoids; NADPH to thylakoid plastoquinones) | growth on minimal medium (E. coli strain ANN.0222; absence of IPTG) | growth on minimal medium (E. coli strain ANN.0222; induction with 0.1 mM IPTG)
c1ccc2c(c1)[I+]c1ccccc1-2 [DPI, diphenylene iodonium] | 10 µM | – | – | – | – | – | – | – | – | – | – | – | – | – | –
B1 | – | 10 µM | 50 µM | 5 μmol O2·min^−1·mg^−1 protein | clearly greater activity with 200 μM NADH | more rapid and more intense | 44 nmol NADH min^−1·μg^−1 protein | 22 nmol O2 min^−1·μg^−1 protein | considerable O2 uptake | 67 nmol·min^−1·mg^−1 chlorophyll | 45 nmol·min^−1·mg^−1 chlorophyll | approximately 3 | approximately 2 | partial complementation | restored
